Numbering of substitutions follows the chain as printed.
B1: SRP1848-G04 (antibody, V domains shown)
VH: EVQLVESGGGLVQPGGSLRLSCAASGFNIHSTDIHWVRQAPGKGLEWVAYITPAGGATFYADSVKGRFTISADTSKNTAYLQMNSLRAEDTAVYYCARYPYWFAGYMDYWGQGTLVTVSS
VL: not shown
B2: SRP1848-G06 (antibody, V domains shown)
VH: B1 VH with H30R, F59Y, S63N, Y99Q
VL: not shown
B3: SRP1848-G07 (antibody, V domains shown)
VH: B1 VH with F59W, Y101F
VL: not shown
B4: SRP1848-D03 (antibody, V domains shown)
VH: EVQLVESGGGVVQPGGSLRLSCAASGFNIRYFSIHWVRQAPGKGLEWVGDIFPNDGSTDYADSVKGRFTISADTSKNTAYLQMNSLRAEETAVYYCARGHWSWPSGYWYYLDYWGQGTLVTVSS
VL: not shown
B5: SRP1848-A02 (antibody, V domains shown)
VH: EVQLVESGGGLVQPGGSLRLSCAASGFNISGFRIHWVRQAPGKGLEWVAGIYPESGATYYADSVKGRFTISADTSKNTAYLQMNSLRAEDTAVYYCARHLYVWDWVLDHVLDYWGQGTLVTVSS
VL: not shown
B6: SRP1848-E02 (antibody, V domains shown)
VH: EVQLVESGGGLVQPGGSLRLSCAASGFNIGKYSIHWVRQAPGKGLEWVGEIYPNDGNTDYADSVKGRFTISADTSKNTAYLQMNSLRAEDTAVYYCARGSWSWRSGYGYYLDYWGQGTLVTVSS
VL: not shown
B7: SRP1848-F07 (antibody, V domains shown)
VH: B6 VH with G30S, K31N, Y32H, N57I, R87S, S102D, G108S
VL: not shown
B8: SRP1848-F08 (antibody, V domains shown)
VH: EVQLVESGGGLVQPGGSLRLSCAAGGFNISNHSIHWVRQAPGKGVEWVGEIYPVDGITDYADSVKGRFTISADTSKNTAYLRMNSLRAEDTAVYYCARGSWYWQSGYSYYLDYWGQGTLVTVSS
VL: not shown
B9: SRP1848-F11 (antibody, V domains shown)
VH: EVQLVESGGGLVQPGGSLRLSCAASGFNISNNYIHWVRQAPGKGLEWVGGITPIDGNTDYADSVKGRFTISADTSMNTAYLQMNSLRAEDTAVYYCARGSWYWRAGYGYYLDYWGQGALVTVSS
VL: not shown
B10: SRP1848-F01 (antibody, V domains shown)
VH: B6 VH with G30R, K31T, E50S, Y52F, N57T, S102A, S105A, G108S
VL: not shown
B11: SRP1848-F02 (antibody, V domains shown)
VH: B6 VH with G30R, K31T, E50S, Y52F, N57T, F68L, R104Q, S105A
VL: not shown
B12: SRP1848-F06 (antibody, V domains shown)
VH: B9 VH with N31L, N32S, T52S, M76K, S100F, Y102A, A105S, A118T
VL: not shown
B13: SRP1848-H01 (antibody, V domains shown)
VH: B4 VH with V11L, Y31T, F32Q, V48I, N54I, S57I, E90D, H100S, Y107M, W108D
VL: not shown
B14: SRP1848-G01 (antibody, V domains shown)
VH: B6 VH with G30S, K31R, Y32H, E50W, Y52A, N57S, S102A, G108S, Y110F
VL: not shown
B15: SRP1848-F10 (antibody, V domains shown)
VH: B6 VH with G30S, K31N, Y32N, E50S, Y52F, N57Y, S102F
VL: not shown
B16: SRP1848-E05 (antibody, V domains shown)
VH: B6 VH with L20V, K31V, S33Y, E50G, Y52T, N57Y, S100F, S102A
VL: not shown
B17: SRP1848-G03 (antibody, V domains shown)
VH: EVQLVESGGGLVQPGGSLRLSCAASGFNISTYYIHWVRQAPGKGLEWVGGITPSDGFTDYADSVKGRSTISADTSKNTAYLQMNSLRAEDTAVYYCARGSWSWPSGHGYFLDYWGQGTLVTVSS
VL: not shown
B18: SRP1848-F09 (antibody, V domains shown)
VH: B6 VH with G30S, K31N, Y32H, S33Y, E50G, Y52S, N54L, N57Y, S100A, L111I
VL: not shown
B19: SRP1848-F05 (antibody, V domains shown)
VH: B6 VH with G30S, Y32S, N57S, S102A, G108S, Y110F
VL: not shown
B20: SRP1848-E07 (antibody, V domains shown)
VH: B6 VH with G30R, Y32S, Y52F, N54Y, N57S, S63N, S100A, L111I
VL: not shown

target: human folate receptor alpha (hFOLR1) (human, UniProt P15328 25-234); test: cell-based or functional assay
Sequence (P15328 25-234 limits assumed): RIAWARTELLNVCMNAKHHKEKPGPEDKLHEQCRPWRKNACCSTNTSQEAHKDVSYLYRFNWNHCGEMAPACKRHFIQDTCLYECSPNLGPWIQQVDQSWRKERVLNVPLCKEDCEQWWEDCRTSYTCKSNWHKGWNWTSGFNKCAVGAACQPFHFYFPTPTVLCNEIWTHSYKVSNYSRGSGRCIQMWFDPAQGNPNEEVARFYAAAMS

Q: For B1, which “Igrov 2° antibody cell killing EC50” value is on record?
A: 0.016 nM

Q: What about the “Igrov 2° antibody cell killing Span” value of the same binder?
A: 75%

Q: What about the “KB 2° antibody cell killing EC50” value of the same binder?
A: 0.051 nM

Q: And the “KB 2° antibody cell killing Span” value?
A: 92%

Q: With B2 as the binder, how does the “Igrov 2° antibody cell killing EC50” value read?
A: 0.026 nM

Q: And the “Igrov 2° antibody cell killing Span” value?
A: 81%

Q: What about the “KB 2° antibody cell killing EC50” value of the same binder?
A: 0.057 nM

Q: And the “KB 2° antibody cell killing Span” value?
A: 96%

Q: B3 was tested. Which “Igrov 2° antibody cell killing EC50” value did it give?
A: 0.038 nM

Q: And the “Igrov 2° antibody cell killing Span” value?
A: 78%

Q: And the “KB 2° antibody cell killing EC50” value?
A: 0.058 nM

Q: And the “KB 2° antibody cell killing Span” value?
A: 94%

Q: Which results are given for B4?
A: Igrov 2° antibody cell killing EC50: 0.038 nM; Igrov 2° antibody cell killing Span: 76%; KB 2° antibody cell killing Span: 98%

Q: What does the source list for B5?
A: Igrov 2° antibody cell killing EC50: 0.039 nM; Igrov 2° antibody cell killing Span: 71%; KB 2° antibody cell killing EC50: 0.028 nM; KB 2° antibody cell killing Span: 94%

Q: For B6, which “Igrov 2° antibody cell killing EC50” value is on record?
A: 0.025 nM

Q: And the “Igrov 2° antibody cell killing Span” value?
A: 71%

Q: And the “KB 2° antibody cell killing EC50” value?
A: 0.046 nM

Q: What about the “KB 2° antibody cell killing Span” value of the same binder?
A: 93%

Q: For B7, which “Igrov 2° antibody cell killing EC50” value is on record?
A: 0.018 nM

Q: And the “Igrov 2° antibody cell killing Span” value?
A: 71%

Q: And the “KB 2° antibody cell killing EC50” value?
A: 0.057 nM

Q: What about the “KB 2° antibody cell killing Span” value of the same binder?
A: 92%

Q: What does the source list for B8?
A: Igrov 2° antibody cell killing EC50: 0.024 nM; Igrov 2° antibody cell killing Span: 77%; KB 2° antibody cell killing EC50: 0.061 nM; KB 2° antibody cell killing Span: 94%

Q: What does the source list for B9?
A: Igrov 2° antibody cell killing EC50: 0.017 nM; Igrov 2° antibody cell killing Span: 70%; KB 2° antibody cell killing EC50: 0.054 nM; KB 2° antibody cell killing Span: 91%

Q: Which “Igrov 2° antibody cell killing EC50” value does the source give for B10 here?
A: 0.018 nM

Q: And the “Igrov 2° antibody cell killing Span” value?
A: 69%

Q: And the “KB 2° antibody cell killing EC50” value?
A: 0.047 nM

Q: What about the “KB 2° antibody cell killing Span” value of the same binder?
A: 91%

Q: B11 was tested. Which “Igrov 2° antibody cell killing EC50” value did it give?
A: 0.009 nM

Q: What about the “Igrov 2° antibody cell killing Span” value of the same binder?
A: 54%

Q: What about the “KB 2° antibody cell killing EC50” value of the same binder?
A: 0.054 nM

Q: And the “KB 2° antibody cell killing Span” value?
A: 92%

Q: How did the “Igrov 2° antibody cell killing EC50” value turn out when B12 was run?
A: 0.032 nM

Q: And the “Igrov 2° antibody cell killing Span” value?
A: 77%

Q: What about the “KB 2° antibody cell killing EC50” value of the same binder?
A: 0.066 nM

Q: What about the “KB 2° antibody cell killing Span” value of the same binder?
A: 94%

Q: B13 was tested. Which “Igrov 2° antibody cell killing EC50” value did it give?
A: 0.016 nM

Q: And the “Igrov 2° antibody cell killing Span” value?
A: 67%

Q: And the “KB 2° antibody cell killing EC50” value?
A: 0.049 nM

Q: What about the “KB 2° antibody cell killing Span” value of the same binder?
A: 96%

Q: Which “Igrov 2° antibody cell killing EC50” value does the source give for B14 here?
A: 0.022 nM

Q: And the “Igrov 2° antibody cell killing Span” value?
A: 66%

Q: And the “KB 2° antibody cell killing EC50” value?
A: 0.07 nM

Q: What about the “KB 2° antibody cell killing Span” value of the same binder?
A: 91%

Q: For B15, which “Igrov 2° antibody cell killing EC50” value is on record?
A: 0.009 nM

Q: And the “Igrov 2° antibody cell killing Span” value?
A: 68%

Q: And the “KB 2° antibody cell killing EC50” value?
A: 0.038 nM

Q: And the “KB 2° antibody cell killing Span” value?
A: 94%

Q: With B16 as the binder, how does the “Igrov 2° antibody cell killing EC50” value read?
A: 0.027 nM

Q: What about the “Igrov 2° antibody cell killing Span” value of the same binder?
A: 78%

Q: What about the “KB 2° antibody cell killing EC50” value of the same binder?
A: 0.071 nM

Q: What about the “KB 2° antibody cell killing Span” value of the same binder?
A: 95%

Q: For B17, which “Igrov 2° antibody cell killing EC50” value is on record?
A: 0.021 nM

Q: And the “Igrov 2° antibody cell killing Span” value?
A: 76%

Q: What about the “KB 2° antibody cell killing EC50” value of the same binder?
A: 0.064 nM

Q: What about the “KB 2° antibody cell killing Span” value of the same binder?
A: 91%

Q: B18 was tested. Which “Igrov 2° antibody cell killing EC50” value did it give?
A: 0.05 nM

Q: What about the “Igrov 2° antibody cell killing Span” value of the same binder?
A: 79%

Q: What about the “KB 2° antibody cell killing EC50” value of the same binder?
A: 0.056 nM

Q: And the “KB 2° antibody cell killing Span” value?
A: 93%

Q: Which “Igrov 2° antibody cell killing EC50” value does the source give for B19 here?
A: 0.015 nM

Q: What about the “Igrov 2° antibody cell killing Span” value of the same binder?
A: 74%

Q: What about the “KB 2° antibody cell killing EC50” value of the same binder?
A: 0.061 nM

Q: And the “KB 2° antibody cell killing Span” value?
A: 94%

Q: Which results are given for B20?
A: Igrov 2° antibody cell killing EC50: 0.013 nM; Igrov 2° antibody cell killing Span: 73%; KB 2° antibody cell killing EC50: 0.059 nM; KB 2° antibody cell killing Span: 94%

— patent US20220047716A1 (SUTRO BIOPHARMA, published 2022)
